How the values were obtained:
GAL4-RpBphP1 = assay: cell-based or functional assay
[1] = biological target: the molecule itself; assay: analytical SEC of LDB-3 alone at different injected amounts, Superdex 200 Increase 10/300 GL
[2] = biological target: the molecule itself; assay: analytical SEC of LDB-14 alone at different injected amounts, Superdex 200 Increase 10/300 GL
[3] = biological target: the molecule itself; assay: analytical SEC of DrBphP alone, Superdex 200 Increase 10/300 GL

NLS-PpsR2-p65
light-induced luciferase expression over dark expression (mammalian two-hybrid, HEK293T, 775-nm light) (GAL4-RpBphP1): 2.95 fold

B1: LDB-3-His (VHH, not shown: small tags and cut ends)
VHH: EVQLQASGGGFVQPGGSLRLSCAASGFTWDHYIMGWFRQAPGKEREFVSAISENGDAWNYYADSVKGRFTISRDNSKNTVYLQMNSLRAEDTATYYCAIGFDVPSGRSWQGSHFWMYWGQGTQVTVSS
notes: Synthetic nanobody, expressed in E. coli WK6; used in SEC, ITC and photoconversion assays; SEC: mixture of monomer and dimer
binding result [1]: binds

B2: LDB-14-His (VHH, not shown: small tags and cut ends)
VHH: EVQLQASGGGFVQPGGSLRLSCAASGTTSRWESMGWFRQAPGKEREFVSAISWQNNSVPYYADSVKGRFTISRDNSKNTVYLQMNSLRAEDTATYYCAAQHNFLGHRYWGQGTQVTVSS
notes: Synthetic nanobody, expressed in E. coli WK6; used in SEC, ITC and photoconversion assays; SEC: mainly monomer
binding result [2]: binds

B3: DrBphP-His, light form (photosensory module of Deinococcus radiodurans bacteriophytochrome, biliverdin-bound, after 654-nm illumination) (other)
chain: MSRDPLPFFPPLYLGGPEITTENCEREPIHIPGSIQPHGALLTADGHSGEVLQMSLNAATFLGQEPTVLRGQTLAALLPEQWPALQAALPPGCPDALQYRATLDWPAAGHLSLTVHRVGELLILEFEPTEAWDSTGPHALRNAMFALESAPNLRALAEVATQTVRELTGFDRVMLYKFAPDATGEVIAEARREGLHAFLGHRFPASDIPAQARALYTRHLLRLTADTRAAAVPLDPVLNPQTNAPTPLGGAVLRATSPMHMQYLRNMGVGSSLSVSVVVGGQLWGLIACHHQTPYVLPPDLRTTLEYLGRLLSLQVQVKEAADVAAFRQSLREHHARVALAAAHSLSPHDTLSDPALDLLGLMRAGGLILRFEGRWQTLGEVPPAPAVDALLAWLETQPGALVQTDALGQLWPAGADLAPSAAGLLAISVGEGWSECLVWLRPELRLEVAWGGATPDQAKDDLGPRHSFDTYLEEKRGYAEPWHPGEIEEAQDLRDTLTGAL
modifications: biliverdin chromophore bound
notes: Same polypeptide as m2; differs only in the photoconverted state (654-nm light); Used in SEC, ITC, BLI and photoconversion assays; also called DrBphP light form
binding result [3]: binds

B4: DrBphP-His, dark form (photosensory module of Deinococcus radiodurans bacteriophytochrome, biliverdin-bound, after 775-nm illumination) (other)
chain: B3 chain
modifications: biliverdin chromophore bound
notes: Same polypeptide as m1; differs only in the photoconverted state (775-nm light); also called DrBphP dark form
binding result [3]: binds

— patent US12679884 (University of Washington, dated 2026)
